{
  "source": "patent US20250042977A1",
  "about": "(WUHAN BANKE BIOTECHNOLOGY, published 2025)",
  "key": {"bovine serum albumin": {"molecular_target": "T1, bovine serum albumin (bovine, UniProt P02769 25-607)", "T1 construct": "Negative control; also called BSA", "T1 sequence (P02769 25-607 limits assumed)": "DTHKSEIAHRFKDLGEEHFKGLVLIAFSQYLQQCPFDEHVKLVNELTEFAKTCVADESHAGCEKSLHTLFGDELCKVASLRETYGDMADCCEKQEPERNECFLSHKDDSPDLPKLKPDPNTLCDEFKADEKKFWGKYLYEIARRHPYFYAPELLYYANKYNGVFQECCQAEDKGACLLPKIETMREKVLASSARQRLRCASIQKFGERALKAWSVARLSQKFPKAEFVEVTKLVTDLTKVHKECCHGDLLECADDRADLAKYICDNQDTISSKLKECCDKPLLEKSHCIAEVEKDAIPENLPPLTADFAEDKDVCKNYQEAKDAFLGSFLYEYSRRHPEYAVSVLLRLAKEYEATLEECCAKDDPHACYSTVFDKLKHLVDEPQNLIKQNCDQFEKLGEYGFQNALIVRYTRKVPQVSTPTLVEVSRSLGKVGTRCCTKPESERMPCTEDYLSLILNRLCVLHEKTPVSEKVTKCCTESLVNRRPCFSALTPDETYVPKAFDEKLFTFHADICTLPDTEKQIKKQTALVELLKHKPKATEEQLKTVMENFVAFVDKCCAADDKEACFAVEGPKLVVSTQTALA", "assay": "ELISA, BSA as negative control, detection with HRP-Anti-FLAG", "description": "recF (4 μg/mL) was coated on an ELISA plate and incubated overnight at 4° C. and then blocked with PBS+3% milk at 37° C. for 1 h. […] The plate was then washed four times with PBST (PBS+0.05% Tween 20) and then incubated with HRP-Anti-FLAG monoclonal antibody at 37° C. for 1 h. The ABTS was added for color development. Bovine serum albumin (BSA) was used as a negative control."}, "[1]": {"molecular_target": "T2, recombinant human respiratory syncytial virus envelope protein F fused to the Fc fragment of antibody IgG1 … (human respiratory syncytial virus, UniProt P03420 26-524; P01857 99-330 = IgG part)", "T2 construct": "also called recombinant F protein; RSV F protein", "T2 sequence (P03420 26-524, tags or fused parts left off)": "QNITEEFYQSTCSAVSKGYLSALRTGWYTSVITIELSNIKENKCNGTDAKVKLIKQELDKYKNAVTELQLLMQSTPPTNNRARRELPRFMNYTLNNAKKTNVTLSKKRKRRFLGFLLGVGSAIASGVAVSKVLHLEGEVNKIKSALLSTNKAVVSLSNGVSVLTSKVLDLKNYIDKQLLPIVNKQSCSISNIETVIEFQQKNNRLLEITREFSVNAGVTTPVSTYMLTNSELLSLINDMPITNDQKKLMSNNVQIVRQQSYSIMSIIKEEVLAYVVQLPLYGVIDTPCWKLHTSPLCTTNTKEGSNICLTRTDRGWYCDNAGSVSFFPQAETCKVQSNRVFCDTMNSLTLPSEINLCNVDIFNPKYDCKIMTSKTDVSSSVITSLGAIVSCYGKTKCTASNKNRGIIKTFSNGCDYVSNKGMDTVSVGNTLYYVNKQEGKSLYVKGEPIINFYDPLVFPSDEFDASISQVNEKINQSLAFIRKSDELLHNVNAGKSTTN", "assay": "ELISA, recF (4 ug/mL) coated, detection with HRP-Anti-FLAG"}, "[2]": {"molecular_target": "F protein of respiratory syncytial virus type A (RSV A) (human respiratory syncytial virus type A)", "assay": "cell-based or functional assay"}, "[3]": {"molecular_target": "F protein of respiratory syncytial virus type B (RSV B) (human respiratory syncytial virus type B)", "assay": "cell-based or functional assay"}},
  "data": [
    {"binder": "C-based single domain antibody BBT-VC001-1 (designed binder, expressed in E. coli HB2151; also called C-type nanobody BBT-VC001-1; BBC-VC001-1; not shown: C-terminal 6x His tag and FLAG tag) PSVLCLPPKPKDTLVISRTPEVTCVVSGYNPYDFPIIKFKWYVDGVEVDNAKVKPRDENSYNTDSVVSKLTVLHQDWLNGKEYKCKVSAREGGSSGEWYYDLWGPIECTISKAK", "values": [
      {"measurement": "binding result", "setting": "bovine serum albumin", "value": "no binding"},
      {"measurement": "EC50", "setting": "[1]", "value": 28, "unit": "nM"},
      {"measurement": "IC50 for inhibition of respiratory syncytial virus type A (infection of Hep-2 cells)", "setting": "[2]", "value": 8.33, "unit": "ng/mL"},
      {"measurement": "IC50 for inhibition of respiratory syncytial virus type B (infection of Hep-2 cells)", "setting": "[3]", "value": 8.42, "unit": "ng/mL"}
    ]}
  ]
}
